Laboratory results taken from article doi:10.1101/2021.08.19.456998 (2021).
One block for each binder: values may come before it. Where no end group is shown, it is not given here. The star is where a group is joined. Biotin = O=C1N[C@H]2[C@H](CS[C@H]2CCCCC(=O)*)N1

Tests used:
[1] = biological target: T1, biotin-SPAK (uncleaved human SPAK CCT domain, residues 441-545, biotinylated on the AviTag) (human, biotin on the lysine of the AviTag (…)); assay: waveRAPID
[2] = biological target: T2, biotin-OSR (uncleaved human OSR1 CCT domain, residues 423-527, biotinylated on the AviTag) (human, biotin on the lysine of the AviTag (…)); assay: waveRAPID
[3] = biological target: T1, biotin-SPAK (uncleaved human SPAK CCT …); assay: multicycle kinetics
[4] = biological target: T2, biotin-OSR (uncleaved human OSR1 CCT …); assay: multicycle kinetics
[5] = biological target: T3, cleaved OSR1 (human OSR1 CCT domain, residues 423-527, tags removed with TEV protease) (human); assay: waveRAPID, 1:1 model
[6] = biological target: T3, cleaved OSR1 (human OSR1 CCT domain, …); assay: multicycle kinetics, 1:1 model
[7] = biological target: T4, cleaved SPAK (human SPAK CCT domain, residues 441-545, tags removed with TEV protease) (human); assay: waveRAPID, heterogeneous ligand model, site 1
[8] = biological target: T4, cleaved SPAK (human SPAK CCT domain, …); assay: waveRAPID, heterogeneous ligand model, second site
[9] = biological target: T4, cleaved SPAK (human SPAK CCT domain, …); assay: waveRAPID, heterogeneous ligand model, second site; remark: listed apart in the source

T2 sequence (chain, as listed by the source): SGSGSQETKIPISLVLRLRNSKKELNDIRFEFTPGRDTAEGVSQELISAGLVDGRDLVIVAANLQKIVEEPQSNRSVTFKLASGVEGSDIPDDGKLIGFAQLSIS
T3 sequence (chain, as listed by the source): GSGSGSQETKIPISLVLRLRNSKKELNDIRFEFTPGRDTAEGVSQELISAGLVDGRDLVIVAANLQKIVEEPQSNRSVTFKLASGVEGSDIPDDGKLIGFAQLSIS

koff [1]: 0.614 s⁻¹
koff [2]: 0.56 s⁻¹
koff [3]: 0.327 s⁻¹
koff [4]: 0.68 s⁻¹
B1: 18-mer RFQV peptide derived from WNK4 (SEEGKPQLVGRFQVTSSK), unbiotinylated (peptide)
peptide: SEEGKPQLVGRFQVTSSK

koff [5]: 0.662 s⁻¹
koff [6]: 1.13 s⁻¹
koff [7]: 0.584 s⁻¹
koff [8]: 6.98e-05 s⁻¹
Kd [9]: 4.25 nM
B2: Biotin-C6-SEEGKPQLVGRFQVTSSK (N-terminally biotinylated 18-mer RFQV peptide derived from WNK4) (peptide)
peptide: {Biotin-C6}-SEEGKPQLVGRFQVTSSK
